The results in this text go back to a protein production outcome set (Wang et al. 2014).
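Further: failed if final PepcDB status was selected cloned or expressed and not failed if soluble or beyond.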

This data set is described as follows: label from the status in PepcDB records.
On to “MSKVFICAAIPDEQAIKEEGAVAVATAIEAGDERRARAKFHWQFLEHYPAAQDCAYKFLVCEDKPGIPRPALDSWDAEYMQENRWDEGAASFVPVETESDPMNVAFDKLAPEVQNAVMVKFDTCENITVDMVISAQELLQEDMATFDGHIVEALMKMPEVNAMYPELKLHAIGWVKHKCKPGAKWPEIQAEMRIWKKRREGERKETGKYTSVVDLARARVHRQHTENSAEKIPPVTAVIRREYKQTWKTLDDELAYALWPGDVDAGNIDGSIHRWAKNEVIDNDREDWKRISASMRKQPDALRYDRQTIFGLVRERPIDIHKDPVALNKYITEYLTTKGVFEDEGTNQSATDTLSSPVPETDAVETAIPDNEKTECKVEVEPSVEREGPFYFLFTDKDGEKYGRANKLSGLDKALAAGATEITKEEYFARKNGTYTGLPQNANTAQNSEQPEPVKVTADEVKKIMQAANISQPDANQLLAASRGEFVAGISDPNDPKWVKGIETRDSVNQNQQETEQNDQKAEQNSPNTQQNEPETKQPEPVAQQEPEKVCTACGQTGGGNCPDCGAVMGDATYQETFDEEYQVEVQEDDPEEMEGAEHPHKENTDGNQHHDSDNETGETADHSIKVNGHQEITSTSRTCDHLMIDLETMGKNPDAPIISIGAIFFDPQTGDMGPEFSKTIDLETAGGVIDRDTIKWWLKQSREAQSAIMTDEIPLDDALLQLREFIDENSGEFFVQVWGNGANFDNTILRRSYERQGIPCPWRYYNDRDVRTIVELGKAIDFDARTAIPFEGERHNALDDARYQAKYVSVIWQKLIPNQADF”, for which the protein production result was “failed”.

Take “MSKVLVLKSSILAGYSQSGQLTDYFIEQWREKHVADEITVRDLAANPVPVLDGELVGAMRPGDAPLTPRQQDALALSDELIAELKAHDVIVIAAPMYNFNIPTQLKNYFDLIARAGITFRYTEKGPEGLVTGKRAVVLSSRGGIHKDTPTDLIAPYLKVFLGFIGITDVNFVFAEGIAYGPEVAAKAQADAKAAIDSVVAA”: the protein production entry is recorded as “not failed”.

On to “MSKVLVLKSSILAGYSQSNQLSDYFVEQWREKHSADEITVRDLAANPIPVLDGELVGALRPSDAPLTTRQQEALALSDELIAELKAHDVIVIAAPMYNFNISTQLKNYFDLVARAGVTFRYTENGPEGLVTGKKAIVITSRGGIHKDGPTDLVTPYLSTFLGFIGITDVKFVFAEGIAYGPEMAAKAQSDAKAAIDSIVAA”, for which the protein production entry was “failed”.

As for “MSLAAARGGVGAGPDVRPVHGVHARMAEKMTLSHKEIPTAKASVEVICAELLRLRDRFVSAAPEITPFALTLRLLVIALKHNVILNSTWVDSGEGPQVHVHRGVHLGFGAATERGLLVPVVTDAQDKNTRELASRVAELITGAREGTLTPAELRGSTFTVSNFGALGVDDGVPVINHPEAAILGLGAIKPRPVVVGGEVVARPTMTLTCVFDHRVVDGAQVAQFMCELRDLIESPETALLDLEGHHHHHH”, the protein production result is “not failed”.

In the case of “MSLADTVRMGTEGAYPPYNFINDAGEVDGFERELGDELCKRAGLTCEWVKNDWDSIIPNLVSGNYDTIIAGMSITDERDEVIDFTQNYIPPTASSYVATSDGADLSGIVAAQTATIQAGYIAESGATLVEFATPEETIAAVRNGEADAVFADRDYLVPIVAESGGELMFVGDDVPLGGGVGMGLRESDGELRGKFDAAITSMKEDGTLNTMIKKWFGEDAAVYEEGHHHHHH”, the protein production result was “not failed”.

For “MSLAEHKGDVMIVDDDAHVRIAVKTILSDAGFHIISADSGGQCIDLLKKGFSGVVLLDIMMPGMDGWDTIRAILDNSLEQGIAIVMLTAKNAPDAKMIGLQEYVVDYITKPFDNEDLIEKTTFFMGFVRNQTGNEGHHHHHH”, the protein production entry is recorded as “not failed”.

Turning to “MSLAPCGLVPSARQLEWYNREMIAFFHFGINTFEEYVNEGDGKASTAIFNPTALDCRQWMQTLKAAGIPAAILTAKHADGFCLWPSKYTDYSVKNAAWKNGKGDVVREFVDACEEYGLKAGIYLGPHDRHEHLSPLYTTERYKEYYAHQLGELMSDYGKIWETWWDGAGADELTTPVYRHWYKIVREKQPDCVIFGTKNSYPFADVRWMGNEAGEAGDPCWATTDSVAIRDEAQYYKGLNEGMLDGDAYIPAETDVSIRPSWFYHAEEDSRVKSVRELWDIYCTSVGRNSVLLLNFPPDRRGLIHSTDSLHAALLKQGIDETFSTNLLRGAKVKATNVRGAKYSPEKMLDNEKNTYFAGKDGEVKADIIFTLPKTIEFDCLMIEEVIELGHRTTKWSVEYTVDGKNWITIPEATDKQAIGHKWIVRLAPVKAKQVRLRIQDGKACPAIHTFGVYKQSPVFKEGHHHHHH”, the protein production entry is given as “not failed”.

As to “MSLAQGRQVIGLDIGTTSTIAILVRLPDTVVAVASRPTTLSSPHPGWAEEDPAQWWDNARAVLAELKTTAGESDWRPGGICVTGMLPAVVLLDDRGAVLRPSIQQSDGRCGDEVAELRAEVDSEAFLARTGNGVTQQLVTAKLRWIERHEPAVFGAIATVCGSYDYINMLLTGERVVDRNWALEGGFIDLASGTVEADLVALAHIPPSAVPPAHPTHRVLGAVTAEAAALTGLPTGLPVYGGAADHIASALAAGITRPGDVLLKFGGAGDIIVASATAKSDPRLYLDYHLVPGLYAPNGCMAATGSALNWLAKLLAPEAGEAAHAQLDALAAEVPAGADGLVCLPYFLGEKTPIHDPFASGTFTGLSLSHTRGHLWRALLEAVALAFRHHVAVLDDIGHAPQRFFASDGGTRSRVWMGIMADVLQRPVQLLANPLGSAVGAAWVAAIGGGDDLGWDDVTALVRTGEKITPDPAKAEVYDRLYRDFSALYATLHPFFHRSREGHHHHHH”, the protein production result is “not failed”.

Regarding “MSLASNKKYTFACLLPKHLEGEYWTDVQKGIREAVTTYSDFNISANITHYDPYDYNSFVATSQAVIEEQPDGVMFAPTVPQYTKGFTDALNELGIPYIYIDSQIKDAPPLAFFGQNSHQSGYFAARMLMLLAVNDREIVIFRKIHEGVIGSNQQESREIGFRQYMQEHHPACNILELNLHADLNIEDSRMLDDFFREHPDVKHGITFNSKVYIIGEYLQQRRKSDFSLIGYDLLERNVTCLKEGTVSFLIAQQPELQGFNSIKTLCDHLIFRKEVACTNYMPIDLLTKENIDYYHSEGHHHHHH”, the protein production result is recorded as “not failed”.

For “MSLDDIINNMIDKLKLLVHFDRISFLLLANETLKLSHVYPKGSHSLDIGSTIPKEQSLYWSALDQRQTIFRSLTDTQDNFYEKQYLAILDLKSILVIPIYSKNKRVGVLSIGRKQQIDWSLDDLAFLEQLTDHLAVSIENVELYGQVLRSKQEWEDTFKAVD”, the protein production entry is given as “not failed”.

For “MSLDKGDKAPDFALPGKTGVVKLSDKTGSVVYLDFWASWCGPCRQSFPWMNQMQAKYKAKGFQVVAVNLDAKTGDAMKFLAQVPAEFTVAFDPKGQTPRLYGVKGMPTSFLIDRNGKVLLQHVGFRPADKEALEQQILAALGGNEGHHHHHH”, the protein production entry is given as “not failed”.

Take “MSLDQIKIAYIGGGSQGWARSLMSDLSIDERMSGTVALYDLDFEAAQKNEVIGNHSGNGRWRYEAVSTLKKALSAADIVIISILPGSLDDMEVDVHLPERCGIYQSVGDTVGPGGIIRGLRAVPIFAEIARAIRDYAPESWVINYTNPMSVCTRVLYKVFPGIKAIGCCHEVFGTQKLLAEMVTERLGIEVPRREDIRVNVLGINHFTWITKASYRHIDLLPIFREFSAHYGESGYELEGECWRDSVFCSAHRVAFDLFETYGAIPAAGDRHLAEFLPGPYLKQPEVWKFHLTPISFRKQDRAEKRQETERLIVQQRGVAEKASGEEGVNIIAALLGLGELVTNVNMPNQGQVLNLPIQAIVETNAFITRNRVQPILSGALPKGVEMLAARHISNQEAVADAGLTKDTGLAFQAFLNDPLVQIDRSDAEQLFNDMLQCIMQSEGHHHHHH”: the protein production result is reported as “not failed”.

Consider “MSLEESLEQLKRQYLHALPDKKKQIITLWVSLRKNWQSYMLSAVYREVHNLKGSSETFGLTETKDIVDKLELQLKNLLDAPAPTLNLIKGLDTLFHQLLQNNQHYLPAAPVVEAQMQQNPYNPSKARHEYCIAIIEDDNNVGAMITKQLHEFGFNVQHFLNFTDFIKVQYASPFDLILLDLILPDYTEDALFEAACEFEKNNTRVFVLSSRSDFDMRLLAIRANVSEYFVKPAETTLLVRKIHQWLKMSDKPPLKVLLVDDQQSMVDYFSSLLRSHGLMVRGMTKPEQVIPTLEQFEPDLFIFDLYMPGVNGLELARMIRQLDKYTSSPILVLSSDDTMQNKVSIIQAGSDDLISKQTAPSLFVTQVISRAQRGHDIRSSASRDSLTGLLNHTQILVAARHCINLAKRANSSVCIAMLDLDHFKQVNDTYGHSGGDKVLLAFAHLLQQSLRAADFMGRYGGEEFMLVIPDMPAPLVIAKVNAIRESFSNIVFVEEGAEFKVTLSGGLAFSTECHEFQECLLLADKNLYEAKRTGRNRIINTLVK”, for which the protein production result is recorded as “failed”.

Take “MSLEKQIESYYQEIAQLIIDMIPEEWAEVRFYAQEDHDGWKIFFFHYLSASSDEWTKDIDIRDVIKVPQDEFMEKYNELSFCISDFRKDYAEAFGEPWMSFQMTFYASGKFNIDFYYDKNPFDTFLTRLAWQYEHFGTIPEDSFYKETLNEYLEEKAQGKRYPFLEPLKEEEGHHHHHH”: the protein production result is reported as “not failed”.

Take “MSLELPAEVQEMPIYREWISGILAGKIASPFWEMAQPQKNQHCLDIGCGVSFLIYPWRDWQAFFYGQDVSNVARDTLNSRGSQLNSKLFKGVELGAAHQLKYTLSYFDLAIATGFSCYFPLEYWTSVLQAVKRVLKPDGHFVFDILNAAHPQAEDWAVLETYLGAEVFLEPVTEWEKIINAAGAKVVGRQPGEFFDLYKLRLEHHHHHH”: the protein production entry is recorded as “not failed”.

Regarding “MSLENKFARTVLGDIPVEKLGITDCHDHFIKNGGPEVEEHIDFLMLNVDASIKEFKEFIDRGGSTIVTMDPPNVGRDVLKTLEIANAVKNLGGNVIMSTGFHKAKFYDKYSSWLAVVPTEEIVKMCVAEIEEGMDEYNYNGPVVKRSKAKAGIIKAGTGYGAIDRLELKALEVAARTSILTGCPILVHTQLGTMALEVAKHLIGFGANPDKIQISHLNKNPDKYYYEKVIKETGVTLCFDGPDRVKYYPDSLLAENIKYLVDKGLQKHITLSLDAGRILYQRNYGLTKGKQTFGLAYLFDRFLPLLKQVGVSKEAIFDILVNNPKRVLAFDEKRNFDPLKVSKEVLELKKELNLNEGHHHHHH”, the protein production result is recorded as “not failed”.

With “MSLERLRVAAYCRVSTDSEDQLNSYKSQVQYYTDMIKKNKEWVLADIYADEAITGTQVTKREDFQRMINDCMNGEIDMVFTKSISRFARNTLDTLKYVRMLKERNIAVYFEDEKINTLTMDGELLLVVLSSVAQQEVENISANVKKGLKMKMKRGELVGFQEGHHHHHH”, the protein production result is recorded as “not failed”.

Consider “MSLESMLSHPPIPIADMAEHTERLKANDSLKLSQEYESIDPGQQFTWEHSNLEVNKPKNRYANVIAYDHSRVILQPIEGIMGSDYINANYVDGYRRQNAYIATQGPLPETFGDFWRMVWEQRSATIVMMTRLEEKSRIKCDQYWPNRGTETYGFIQVTLLDTIELATFCVRTFSLHKNGSSEKREVRQFQFTAWPDHGVPEYPTPFLAFLRRVKTCNPPDAGPIVVHCSAGVGRTGCFIVIDAMLERIKPEKTVDVYGHVTLMRSQRNYMVQTEDQYSFIHEALLEAVGCGNTEVPARSLYAYIQKLAQVEPGEHVTGMELEFKRLANSKAHTSRFISANLPCNKFKNRLVNIMPYESTRVCLQPIRGVEGSDYINASFIDGYRQQKAYIATQGPLAETTEDFWRMLWENNSTIVVMLTKLREMGREKCHQYWPAERSARYQYFVVDPMAEYNMPQYILREFKVTDARDGQSRTVRQFQFTDWPEQGVPKSGEGFIDFIGQVHKTKEQFGQDGPISVHCSAGVGRTGVFITLSIVLERMRYEGVVDIFQTVKMLRTQRPAMVQTEDEYQFCYQAALEYLGSFDHYATEGHHHHHH”, for which the protein production entry is “not failed”.
